Experiments:
[1] = biological target: T1, GAL13-BSA (Bos taurus, UniProt P02769); test: Reactivity of novel monoclonal antibody by direct ELISA (Example 5); type: binding; conditions: immobilized GAL13-BSA 1 μg/mL, POD-labeled antibody dilution series from 4 μg/mL
T1 construct: purchased Sigma-Aldrich Co. LLC
Procedure: BSA modified with the novel structure derived from Glycer-AGEs (GAL13-BSA) was added at 100 μL/well with a concentration of 1 μg/mL and immobilized overnight at 4° C. The plate was washed three times with PBS containing 0.05% (v/v) Tween 20 (PBS-T) and then blocked with PBS-T containing 0.5% (w/v) gelatin for 1 hour. The POD-labeled novel monoclonal antibody SJ-5 prepared in Example 4 and the anti-glyceraldehyde-derived AGEs polyclonal antibody as a control were serially diluted into 4-fold dilutions from 4 μg/mL to 0.06254 μg/mL to prepare dilution series, which were then added at 100 μL/well to the antigen-immobilized plate and left standing for 1 hour. After washing, an o-phenylenediamine solution (100 μL) prepared into 0.5 mg/mL with a 0.1 M citrate-phosphate buffer solution (pH 5.0) containing 0.02% (w/v) hydrogen peroxide was added to each well and left standing at 25° C. for 10 minutes. Then, color reaction was terminated by the addition of a 1 M sulfuric acid solution (50 μL) to each well. Then, absorbance at 490 nm was measured with a microplate reader.

[2] = biological target: T1, GAL13-BSA; test: Dissociation constant measurement, Biacore T200 (Example 8); type: binding; conditions: Biacore T200, sensor chip CM5; ligand GAL13-BSA
Procedure: The dissociation constant (Kd value) of the monoclonal antibody SJ-5 was measured by the following approach: BSA containing AGEs derived from glyceraldehyde (Glycer-AGEs-BSA) was diluted with a 10 mM sodium acetate solution (pH 4.0) to prepare a ligand solution with a final concentration of 100 μg/mL. Biacore T200 (GE Healthcare Japan Corp.) was used for the immobilization of the ligand and the calculation of the KD value. The ligand solution was immobilized onto sensor chip CM5 (GE Healthcare Japan Corp.) using an amine coupling kit (GE Healthcare Japan Corp.). Subsequently, antibody dilution solutions containing the monoclonal antibody diluted into concentrations from 0 to 400 nM were prepared, and the Kd value was calculated.
BSA chemically bonded to the peak obtained in fractionation by HPLC (GAL13-BSA) was diluted with a 10 mM sodium acetate solution (pH 5.0) to prepare a ligand solution with a final concentration of 25 μg/mL.

[3] = Reactivity of PB-1 with known AGEs by competitive ELISA (Example 31); type: binding; conditions: immobilized A-peak-BSA
Procedure: Competitive ELISA was conducted using the reagents described in Example 13. A solution of A-peak-BSA prepared into 1 μg/mL in a coating solution was added at 100 μL/well to a 96-well microtiter plate (Costar) and incubated overnight at 4° C.
Each well after the immobilization treatment was washed three times with a washing solution (300 μL), and a blocking solution (200 μL) was added thereto and left at room temperature for 1 hour.
GAL691 (prepared in Example 16), GLAP (prepared in Example 12), Lys-hydroxy-triosidine (prepared in Example 17), GA-pyridine (prepared in Example 28), GOLD (prepared in Example 29), and Z-Lys were each dissolved in a phosphate buffer solution (0.2 M, pH 7.4) to prepare a 100 mM solution. Then, a 10 mM solution was prepared by dilution 10-fold with a diluting solution containing BSA (1 mg/mL, FUJIFILM Wako Pure Chemical Corp.). Sample solutions of 4-fold dilution series of 0.04, 0.16, 0.63, and 2.5 mM were further prepared with a diluting solution containing a 10% (v/v) phosphate buffer solution and 1 mg/mL BSA. Ten-fold dilutions of a phosphate buffer solution with a diluting solution containing 1 mg/mL BSA were prepared as blank solutions containing no sample in the same way as above. A 0.1 μg/mL solution of the PB-1 antibody was prepared with a diluting solution containing 1 mg/mL BSA.
Each well treated with the blocking solution was washed three times with a washing solution (300 μL), and the sample solutions of 4-fold dilution series (50 μL each) and the PB-1 antibody dilution solution (50 μL) were added thereto, stirred with a plate mixer for 2 minutes, and then incubated at room temperature for 1 hour.
After the competitive reaction, each well was washed three times with a washing solution (300 μL), and peroxidase-labeled anti-mouse IgG (H+L) polyclonal antibody, F(ab′)2 fragment (Kirkegaard & Perry Laboratories, Inc.) diluted into 0.05 μg/mL with a diluting solution containing 1 mg/mL BSA was added at 100 μL/well and left standing at room temperature for 1 hour.
After washing three times with a washing solution (300 μL), a substrate solution (ELISA POD substrate TMB kit (Popular), Nacalai Tesque, Inc.) was added at 100 μL/well and incubated at room temperature for 10 minutes under light shielding. Then, color development was terminated by the addition of 2 N sulfuric acid (50 μL).
Absorbance was measured at a dominant wavelength of 450 nm and a sub-wavelength of 650 nm with a microplate reader (Cytation 5, BioTek Instrument Inc.), and the absorbance at the sub-wavelength was subtracted from the absorbance at the dominant wavelength. Change in the absorbance of GAL691, GLAP, Lys-hydroxy-triosidine, GA-pyridine, GOLD, and Z-Lys was indicated as relative values to the absorbance of the blank solution.

[4] = test system: HUVEC; test: Neutralization test of vascular endothelial cell lumen formation inhibition using PB-1 (Example 35); type: cell-based, human; conditions: PB-1 pre-reacted with Glycer-AGEs-BSA; HUVEC, 8 hours
Procedure: Matrigel matrix was prepared by the same operation as in Example 14.
10 μL of Glycer-AGEs-BSA (10 mg/mL) prepared in Example 1, 10 μL of phosphate-buffered saline (PBS, FUJIFILM Wako Pure Chemical Corp.), and 90 μL of the PB-1 antibody (10 mg/mL) or a control antibody (10 mg/mL) were added to a 1.5 mL tube (Watson) and left standing at room temperature for 10 minutes. Then, a supernatant was recovered by centrifugation at 14000 rpm for 15 minutes using a centrifuge (Thermo Fisher Scientific Inc.).
(3) A lumen formation inhibition test was conducted by the same operation as in Example 14. As shown in the drawing, HUVEC was confirmed to form a lumen in the Matrigel matrix in the control BSA addition group. […] Furthermore, this inhibition of lumen formation was neutralized by the reaction solution of PB-1.

T1 sequence (P02769 25-607): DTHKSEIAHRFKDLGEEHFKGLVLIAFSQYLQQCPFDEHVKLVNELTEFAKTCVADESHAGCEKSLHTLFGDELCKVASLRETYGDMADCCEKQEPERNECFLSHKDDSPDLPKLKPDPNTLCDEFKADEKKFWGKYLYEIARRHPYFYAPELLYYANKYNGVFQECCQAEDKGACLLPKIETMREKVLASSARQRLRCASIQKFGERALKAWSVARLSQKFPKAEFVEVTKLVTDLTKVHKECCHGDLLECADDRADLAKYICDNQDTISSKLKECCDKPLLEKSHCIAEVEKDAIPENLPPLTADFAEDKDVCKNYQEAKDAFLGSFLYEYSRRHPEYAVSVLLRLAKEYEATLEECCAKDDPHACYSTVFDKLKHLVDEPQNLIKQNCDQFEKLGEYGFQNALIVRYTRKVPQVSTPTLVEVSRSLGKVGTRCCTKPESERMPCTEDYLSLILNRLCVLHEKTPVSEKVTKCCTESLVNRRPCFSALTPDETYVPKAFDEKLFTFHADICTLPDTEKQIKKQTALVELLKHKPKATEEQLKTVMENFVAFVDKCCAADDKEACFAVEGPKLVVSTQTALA

reactivity with GAL13-BSA (absorbance at 490 nm) [1]	Kd [2] [nM]	Molecule	recognition of GA-pyridine [3]	recognition of GLAP [3]	recognition of GOLD [3]	recognition of Lys-hydroxy-triosidine [3]	neutralization of lumen formation inhibition by Glycer-AGEs-BSA [4]
react favorably	87.5	SJ-5: mouse monoclonal antibody raised against GAL13-MSA; heavy-chain variable region SEQ ID NO 4, light-chain variable region SEQ ID NO 8 (antibody, listed as Mus musculus, V domains shown) VH: EVMLVESGGRLVKPGGSLKLSCAASGFTFSSYGMSWVRQTPEKRLEWVATISGGGSYTYYPDSVKGRFTISRDNVKNNLYLQMSSLRSEDTALYYCARRGAYGDYGWFAYWGQGTLVTVSA VL: DIVLTQSPATLSVTPGDSVSLSCRASQSINNNLHWYQQKSHESPRLLIKCASQSISGIPSRFSGSGSGTDFTLSINSVETEDFGMYFCQQSNSWPLTFGAGTKLELK	–	–	–	–	–
–	–	PB-1: mouse monoclonal antibody raised against A-peak-BSA; heavy-chain variable region SEQ ID NO 18, light-chain variable region SEQ ID NO 22 (antibody, listed as Mus musculus, V domains shown) VH: EVRLQQSGPELVKPGTSVKISCKASGYSFTGYYMHWVKQSPVKSLEWIGRIIPYNGATSYNQNFKDKASLTVDKSSRTAYMDLHSLTSEDSAVYYCARSRYYGRAPYYFDYWGQGTTLTVSS VL: DVVVTQTPLSLPVSLGDQASISCRSSQSIVHSNGNTYLEWYLQKPGQSPKLLIYKVSNRFSGVPDRISGSGSGTDFTLKISRVEAGDLGVYSCFQGSHVPFTFGSGTKLEIK	does not recognize	does not recognize	does not recognize	does not recognize	neutralized

From patent US12391751B2, “Antibody against advanced glycation end products and use thereof” (Bloom Technology Corporation, priority 2018, dated 2025)
